{"source": "patent US20200199204A1", "assay_in_all_cases": "cell-based or functional assay", "key": {"[1]": {"biological_target": "HIV-1 Env of DU156.12 (HIV-1)"}, "[2]": {"biological_target": "HIV-1 Env of CAP256.SU (HIV-1)"}, "[3]": {"biological_target": "HIV-1 Env of ZM135.10a (HIV-1)"}, "[4]": {"biological_target": "HIV-1 Env of CAP244.D3 (HIV-1)"}, "[5]": {"biological_target": "HIV-1 Env of CM244.ec1 (HIV-1)"}, "[6]": {"biological_target": "HIV-1 Env of Q461.e2 (HIV-1)"}, "[7]": {"biological_target": "HIV-1 Env of 191821.E6.1 (HIV-1)"}, "[8]": {"biological_target": "HIV-1 Env of ZM53.12 (HIV-1)"}, "[9]": {"biological_target": "HIV-1 Env of DU172.17 (HIV-1)"}, "[10]": {"biological_target": "HIV-1 Env of Q23.17 (HIV-1)"}, "[11]": {"biological_target": "HIV-1 Env of RHPA.7 (HIV-1)"}, "[12]": {"biological_target": "HIV-1 Env of MB201 (HIV-1)"}, "[13]": {"biological_target": "HIV-1 Env of Q842.d12 (HIV-1)"}, "[14]": {"biological_target": "HIV-1 Env of REJO.67 (HIV-1)"}, "[15]": {"biological_target": "HIV-1 Env of ZM214.15 (HIV-1)"}, "[16]": {"biological_target": "HIV-1 Env of 96ZM651.02 (HIV-1)"}, "[17]": {"biological_target": "HIV-1 Env of AC10.29 (HIV-1)"}, "[18]": {"biological_target": "HIV-1 Env of CAAN.A2 (HIV-1)"}, "[19]": {"biological_target": "HIV-1 Env of SC422.8 (HIV-1)"}, "[20]": {"biological_target": "HIV-1 Env of QH0692.42 (HIV-1)"}, "[21]": {"biological_target": "HIV-1 Env of WITO.33 (HIV-1)"}, "[22]": {"biological_target": "HIV-1 Env of DU422.01 (HIV-1)"}, "[23]": {"biological_target": "HIV-1 Env of RW020.2 (HIV-1)"}, "[24]": {"biological_target": "HIV-1 Env of ZM233.6 (HIV-1)"}, "[25]": {"biological_target": "HIV-1 Env of 0260.v5.c36 (HIV-1)"}, "[26]": {"biological_target": "HIV-1 Env of 3016.V5.c36 (HIV-1)"}, "[27]": {"biological_target": "HIV-1 Env of PVO.04 (HIV-1)"}, "[28]": {"biological_target": "HIV-1 Env of TRO.11 (HIV-1)"}, "[29]": {"biological_target": "HIV-1 Env of MB539.2B7 (HIV-1)"}, "[30]": {"biological_target": "HIV-1 Env of UG037.8 (HIV-1)"}, "[31]": {"biological_target": "HIV-1 Env of CAP45.G3 (HIV-1)"}, "[32]": {"biological_target": "HIV-1 Env of BG505.w6m (HIV-1)"}, "[33]": {"biological_target": "HIV-1 Env of Q259.d2.17 (HIV-1)"}, "[34]": {"biological_target": "HIV-1 Env of 6405.v4.c34 (HIV-1)"}, "[35]": {"biological_target": "HIV-1 Env of ZM249.1 (HIV-1)"}, "[36]": {"biological_target": "HIV-1 Env of CNE3 (HIV-1)"}, "[37]": {"biological_target": "HIV-1 Env of C1080.c3 (HIV-1)"}, "[38]": {"biological_target": "HIV-1 Env of Q168.a2 (HIV-1)"}, "[39]": {"biological_target": "HIV-1 Env of KER2018.11 (HIV-1)"}, "[40]": {"biological_target": "HIV-1 Env of KER2008.12 (HIV-1)"}, "[41]": {"biological_target": "HIV-1 Env of TH976.17 (HIV-1)"}, "[42]": {"biological_target": "HIV-1 Env of ZM197.7 (HIV-1)"}, "[43]": {"biological_target": "HIV-1 Env of THRO.18 (HIV-1)"}, "[44]": {"biological_target": "HIV-1 Env of TRJO.58 (HIV-1)"}, "[45]": {"biological_target": "HIV-1 Env of 6535.3 (HIV-1)"}, "[46]": {"biological_target": "HIV-1 Env of CAP210.E8 (HIV-1)"}, "[47]": {"biological_target": "HIV-1 Env of ZM109.4 (HIV-1)"}, "[48]": {"biological_target": "HIV-1 Env of CAP256.PI (HIV-1)"}, "[49]": {"biological_target": "HIV-1 Env of Q769.d22 (HIV-1)"}}}
{"substance": "CAP256-VRC26.13 (antibody)", "values": [{"measurement": "IC50", "setting": "[1]", "result": "> 50", "unit": "mg/L"}, {"measurement": "IC50", "setting": "[2]", "result": 0.019, "unit": "mg/L"}, {"measurement": "IC50", "setting": "[3]", "result": "> 50", "unit": "mg/L"}, {"measurement": "IC50", "setting": "[4]", "result": "> 50", "unit": "mg/L"}, {"measurement": "IC50", "setting": "[5]", "result": "> 50", "unit": "mg/L"}, {"measurement": "IC50", "setting": "[6]", "result": "> 50", "unit": "mg/L"}, {"measurement": "IC50", "setting": "[7]", "result": "> 50", "unit": "mg/L"}, {"measurement": "IC50", "setting": "[8]", "result": 0.039, "unit": "mg/L"}, {"measurement": "IC50", "setting": "[9]", "result": "> 50", "unit": "mg/L"}, {"measurement": "IC50", "setting": "[10]", "result": "> 50", "unit": "mg/L"}, {"measurement": "IC50", "setting": "[11]", "result": "> 50", "unit": "mg/L"}, {"measurement": "IC50", "setting": "[12]", "result": "> 50", "unit": "mg/L"}, {"measurement": "IC50", "setting": "[13]", "result": "> 50", "unit": "mg/L"}, {"measurement": "IC50", "setting": "[14]", "result": "> 50", "unit": "mg/L"}, {"measurement": "IC50", "setting": "[15]", "result": "> 50", "unit": "mg/L"}, {"measurement": "IC50", "setting": "[16]", "result": "> 50", "unit": "mg/L"}, {"measurement": "IC50", "setting": "[17]", "result": "> 50", "unit": "mg/L"}, {"measurement": "IC50", "setting": "[18]", "result": "> 50", "unit": "mg/L"}, {"measurement": "IC50", "setting": "[19]", "result": "> 50", "unit": "mg/L"}, {"measurement": "IC50", "setting": "[20]", "result": "> 50", "unit": "mg/L"}, {"measurement": "IC50", "setting": "[21]", "result": "> 50", "unit": "mg/L"}, {"measurement": "IC50", "setting": "[22]", "result": "> 50", "unit": "mg/L"}, {"measurement": "IC50", "setting": "[23]", "result": "> 50", "unit": "mg/L"}, {"measurement": "IC50", "setting": "[24]", "result": "> 50", "unit": "mg/L"}, {"measurement": "IC50", "setting": "[25]", "result": "> 50", "unit": "mg/L"}, {"measurement": "IC50", "setting": "[26]", "result": 3.74, "unit": "mg/L"}, {"measurement": "IC50", "setting": "[27]", "result": "> 50", "unit": "mg/L"}, {"measurement": "IC50", "setting": "[28]", "result": "> 50", "unit": "mg/L"}, {"measurement": "IC50", "setting": "[29]", "result": "> 50", "unit": "mg/L"}, {"measurement": "IC50", "setting": "[30]", "result": "> 50", "unit": "mg/L"}, {"measurement": "IC50", "setting": "[31]", "result": "> 50", "unit": "mg/L"}, {"measurement": "IC50", "setting": "[32]", "result": "> 50", "unit": "mg/L"}, {"measurement": "IC50", "setting": "[33]", "result": "> 50", "unit": "mg/L"}, {"measurement": "IC50", "setting": "[34]", "result": "> 50", "unit": "mg/L"}, {"measurement": "IC50", "setting": "[35]", "result": "> 50", "unit": "mg/L"}, {"measurement": "IC50", "setting": "[36]", "result": "> 50", "unit": "mg/L"}, {"measurement": "IC50", "setting": "[37]", "result": "> 50", "unit": "mg/L"}, {"measurement": "IC50", "setting": "[38]", "result": "> 50", "unit": "mg/L"}, {"measurement": "IC50", "setting": "[39]", "result": "> 50", "unit": "mg/L"}, {"measurement": "IC50", "setting": "[40]", "result": "> 50", "unit": "mg/L"}, {"measurement": "IC50", "setting": "[41]", "result": "> 50", "unit": "mg/L"}, {"measurement": "IC50", "setting": "[42]", "result": "> 50", "unit": "mg/L"}, {"measurement": "IC50", "setting": "[43]", "result": "> 50", "unit": "mg/L"}, {"measurement": "IC50", "setting": "[44]", "result": "> 50", "unit": "mg/L"}, {"measurement": "IC50", "setting": "[45]", "result": "> 50", "unit": "mg/L"}, {"measurement": "IC50", "setting": "[46]", "result": 0.094, "unit": "mg/L"}, {"measurement": "IC50", "setting": "[47]", "result": "> 50", "unit": "mg/L"}, {"measurement": "IC50", "setting": "[48]", "result": "> 50", "unit": "mg/L"}, {"measurement": "IC50", "setting": "[49]", "result": "> 50", "unit": "mg/L"}]}
